Data set [1] deals with T1, N15 Cro (bacteriophage N15, UniProt Q37964 1-71).
T1 sequence: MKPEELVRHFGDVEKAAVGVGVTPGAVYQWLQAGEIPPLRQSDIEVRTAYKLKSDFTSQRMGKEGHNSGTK
The data set is described as follows: EMSA. For orientation: Mobility shift assays separate free from complexed probe on a gel.

Another data set concerns the target T2, N15 Cro-His6 (bacteriophage N15, UniProt Q37964 1-71).
T2 sequence: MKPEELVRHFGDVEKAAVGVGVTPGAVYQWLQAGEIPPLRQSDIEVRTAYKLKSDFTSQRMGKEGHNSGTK
Nature of the data set: EMSA.

The target of data set [2] is T1, N15 Cro. The data set is described as follows: X-ray crystallography.

B1: N15 OR3 28 bp (dsDNA)
DNA 1: GCAAAATTATAGCCAGCTATAAAGAGCG
DNA 2: CGCTCTTTATAGCTGGCTATAATTTTGC
A word on the Kd: it is the free concentration of one partner at which half of the binding sites on the other are occupied at equilibrium, for simple one-to-one binding. Read a low Kd as higher affinity. On to B1, for which the results for the Kd in the data set with N15 Cro [1] and in the data set with N15 Cro-His6 were 90 ± 7 nM and 91 ± 11 nM, respectively.

B2: N15 symmetric consensus OR 16 bp (dsDNA)
DNA 1: TTTATAGCTAGCTATAA
DNA 2: TTTATAGCTAGCTATAA
For the molecule B2, the binding result in the data set with N15 Cro [2] is recorded as “binds”.

(Values after publication PMC6649833.)
